Laboratory results as given in the supplement of paper PMC7125110.
± gives the standard error. For some assays here: Variants at the floor of the assay were thinned out.

B1: glmS ribozyme (parent)
chain: AUAAAAGCGCCAGAACUACAGAAAUGUAGUUGACGAGGAGGAGGUUUAUCGAAUUUUCGGCGGAUGCCUCCAAA

Assays:
Conditions in all cases: with glucosamine-6-phosphate
glucosamine-6-phosphate [1] = variants of: B1; test: kcat; higher = faster cleavage; RNA array
Procedure, shortened: (§1)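 Barcoded glmS ribozyme variants on sequenced MiSeq chips were transcribed in situ by E. coli RNA polymerase and tracked through a hybridised Cy3 probe at 37 °C. Glucosamine-6-phosphate (40 μM to 10 mM) in HEPES/KCl/Mg(OAc)2 buffer was flowed in, and tiles were imaged over ~14 h. Signals were normalised to baseline and to non-cleaving reference variants; per-tile medians were fit to one- or two-exponential decays to give kobs. kcat and KM came from weighted Michaelis–Menten fits across concentrations.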

glucosamine-6-phosphate [2] = variants of: B1; test: KM; higher = weaker cofactor use; RNA array
Procedure, shortened: as §1

glucosamine-6-phosphate [3] = variants of: B1; test: self-cleavage kobs at 640 uM GlcN6P; higher = faster cleavage; RNA array
Procedure, shortened: as §1

glucosamine-6-phosphate [4] = variants of: B1; test: self-cleavage kobs at 2500 uM GlcN6P; higher = faster cleavage; RNA array
Procedure, shortened: as §1

glucosamine-6-phosphate [5] = variants of: B1; test: self-cleavage kobs at 40 uM GlcN6P; higher = faster cleavage; RNA array
Procedure, shortened: as §1

glucosamine-6-phosphate [6] = variants of: B1; test: self-cleavage kobs at 160 uM GlcN6P; higher = faster cleavage; RNA array
Procedure, shortened: as §1

glucosamine-6-phosphate [7] = variants of: B1; test: self-cleavage kobs at 10000 uM GlcN6P; higher = faster cleavage; RNA array
Procedure, shortened: as §1

Row | Variant | kcat (glucosamine-6-phosphate [1]) | KM (glucosamine-6-phosphate [2]) | self-cleavage kobs at 640 uM GlcN6P (glucosamine-6-phosphate [3]) | self-cleavage kobs at 2500 uM GlcN6P (glucosamine-6-phosphate [4]) | self-cleavage kobs at 40 uM GlcN6P (glucosamine-6-phosphate [5]) | self-cleavage kobs at 160 uM GlcN6P (glucosamine-6-phosphate [6]) | self-cleavage kobs at 10000 uM GlcN6P (glucosamine-6-phosphate [7])
1 | AUAAAAGCGCCAGAACUACAGAAAUGUAGUUGACGAGGAACAGGUUUAUCGAGUUUUCGGCGGAUGCCUCCAAA [G40A G41C A53G] | 0.000315 ± 0.00011 s⁻¹ | 3110 ± 1500 µM | 5.58e-05 ± 1.2e-05 s⁻¹ | 0.000139 ± 3.1e-05 s⁻¹ | – | – | –
2 | AUAAAAGCGCCAGAACUACAGAAAUGUAGUUGACGAGGACGAGGUUUAUCGAGUUUUCGGCGGAUGCCUCCAAA [G40C A53G] | 0.00206 ± 0.00018 s⁻¹ | 2160 ± 310 µM | 0.000539 ± 0.00012 s⁻¹ | 0.00115 ± 0.00032 s⁻¹ | 4.19e-05 ± 1.7e-05 s⁻¹ | 0.000126 ± 3e-05 s⁻¹ | 0.00166 ± 0.00025 s⁻¹
3 | AUAAAAGCGCCAGAACUACAGAAAUGUAGUUGACGAGGACGAGGUUUAUCGAUUUUUCGGCGGAUGCCUCCAAA [G40C A53U] | 0.00427 ± 0.00097 s⁻¹ | 2570 ± 870 µM | 0.000607 ± 0.00011 s⁻¹ | 0.00226 ± 0.00037 s⁻¹ | 8.31e-05 ± 9.2e-06 s⁻¹ | 0.000241 ± 5.8e-05 s⁻¹ | 0.0035 ± 0.00035 s⁻¹
4 | AUAAAAGCGCCAGAACUACAGAAAUGUAGUUGACGAGGACAAGGUUUAUCGAAUUUUCGGCGGAUGCCUCCAAA [G40C G41A] | 0.000118 ± 1.4e-05 s⁻¹ | 667 ± 260 µM | 5.69e-05 ± 8.6e-06 s⁻¹ | 0.000104 ± 1.1e-05 s⁻¹ | – | – | 0.000101 ± 1.3e-05 s⁻¹
5 | AUAAAAGCGCCAGAACUACAGAAAUGUAGUUGACGAGGACGAGGUUUAUCGAAUUUUCGGCGGAUGCCUUCAAA [G40C C70U] | 0.000498 ± 0.00011 s⁻¹ | 512 ± 240 µM | 0.0002 ± 3.4e-05 s⁻¹ | 0.000428 ± 9.7e-05 s⁻¹ | 4.61e-05 ± 9e-06 s⁻¹ | 0.000155 ± 3.2e-05 s⁻¹ | 0.000555 ± 6.8e-05 s⁻¹
6 | AUAAAAGCGCCAGAACUACAGAAAUGUAGUUGACGAGGAAGAGGUCUAUCGAAUUUUCGGCGGAUGCCUCCAAA [G40A U46C] | 0.00192 ± 0.00051 s⁻¹ | 1280 ± 450 µM | 0.000699 ± 0.00012 s⁻¹ | 0.00107 ± 0.00036 s⁻¹ | 7.21e-05 ± 1.4e-05 s⁻¹ | 0.000173 ± 3.9e-05 s⁻¹ | 0.00192 ± 0.00054 s⁻¹
7 | AUAAAAGCGCCAGAACUACAGAAAUGUAGUUGACGAGGACGAGGUUUAUCGAAUUUUCGGCGGAUGACUCCAAA [G40C C67A] | 0.000136 ± 2.4e-05 s⁻¹ | – | 6.63e-05 ± 1.2e-05 s⁻¹ | 0.000181 ± 2.9e-05 s⁻¹ | – | – | 0.000119 ± 1.3e-05 s⁻¹
8 | AUAAAAGCGCCAGAACUACAGAAAUGUAGUUGACGAGGACGAGGUUUAUCGAAUUUUCGGCGGAUGUCUCCAAA [G40C C67U] | 0.000108 ± 1.3e-05 s⁻¹ | – | – | 7.55e-05 ± 1.5e-05 s⁻¹ | – | – | 8.8e-05 ± 7e-06 s⁻¹
9 | AUAAAAGCGCCAGAACUACAGAAAUGUAGUUGACGAGGAAGAGGUUUAUCGAAUCUUCGGCGGAUGCCUCCAAA [G40A U55C] | 0.0017 ± 0.00029 s⁻¹ | 1980 ± 650 µM | 0.00035 ± 0.0001 s⁻¹ | 0.00119 ± 0.00036 s⁻¹ | 4.24e-05 ± 1.5e-05 s⁻¹ | – | 0.0014 ± 0.00025 s⁻¹
10 | AUAAAAGCGCCAGAACUACAGAAAUGUAGUUGACGAGGACGAGGCUUAUCGAAUUUUCGGCGGAUGCCUCCAAA [G40C U45C] | 0.000403 ± 4.9e-05 s⁻¹ | 2310 ± 570 µM | 0.0001 ± 2.5e-05 s⁻¹ | 0.000195 ± 3.4e-05 s⁻¹ | – | – | 0.000344 ± 6.4e-05 s⁻¹
11 | AUAAAAGCGCCAGAACUACAGAAAUGUAGUUGACGAGGAAGAGGUUUAUCGAAUCUUCGGCGGGUGCCUCCAAA [G40A U55C A64G] | 4.82e-05 ± 7.4e-06 s⁻¹ | 7420 ± 2400 µM | – | – | – | – | –
12 | AUAAAAGCGCCAGAACUACAGAAAUGUAGUUGACGAGGAAGAGGUUUAUCGAAUUUCCGGCGGAUGCCUCCAAA [G40A U57C] | 3.56e-05 ± 5.2e-06 s⁻¹ | – | – | 4.59e-05 ± 2e-05 s⁻¹ | – | – | 3.15e-05 ± 1.2e-05 s⁻¹
13 | AUAAAAGCGCCAGAACUACAGAAAUGUAGUUGACGAGGAAGAGGUUUAUCGAAUUUUCGGCGGAUGCCUGCAAA [G40A C70G] | 0.00031 ± 9.1e-05 s⁻¹ | – | 0.000105 ± 1.9e-05 s⁻¹ | 0.000394 ± 0.00012 s⁻¹ | – | – | 0.000244 ± 6.4e-05 s⁻¹
14 | AUAAAAGCGCCAGAACUACAGAAAUGUAGUUGACGAGGAAGAGGCUUAUCGAAUUUUCGGCGGAUGCCUUCAAA [G40A U45C C70U] | 0.000583 ± 6.9e-05 s⁻¹ | 2900 ± 550 µM | 0.000105 ± 2.7e-05 s⁻¹ | 0.000288 ± 8e-05 s⁻¹ | – | – | 0.000432 ± 0.00015 s⁻¹
15 | AUAAAAGCGCCAGAACUACAGAAAUGUAGUUGACGAGGAAGACGUUCAUGGAAUUUUCGGCGGACGCCUCCAAA [G40A G43C U47C C50G U65C] | 2.52e-05 ± 1.1e-05 s⁻¹ | – | – | – | – | – | –
16 | AUAAAAGCGCCAGAACUACAGAAAUGUAGUUGACGAGGACGAGGUAUAUCGAAUUUUCGGCGGAUGCCUCCAAA [G40C U46A] | 0.000264 ± 7.1e-05 s⁻¹ | – | 7.92e-05 ± 1.6e-05 s⁻¹ | 0.000286 ± 4.6e-05 s⁻¹ | – | – | 0.000207 ± 3.1e-05 s⁻¹
